B1: R18 (antibody, V domains shown)
VH: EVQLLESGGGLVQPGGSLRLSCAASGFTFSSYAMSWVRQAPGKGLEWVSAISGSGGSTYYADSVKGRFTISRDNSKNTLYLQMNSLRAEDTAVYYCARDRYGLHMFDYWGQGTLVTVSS
VL: DIQMTQSPSSLSASVGDRVTITCRASQSISSYLNWYQQKPGKAPKLLIYAASSLQSGVPSRFSGSGSGTDFTLTISSLQPEDFATYYCLQFNSFPLTFGGGTKVEIK
notes: Synthetic library clone; Fab on phage in the phage ELISA
B2: R2 (antibody, V domains shown)
VH: EVQLQESGPGLVKPSETLSLTCTVSGGSISSSSYYWGWIRQPPGKGLEWIGSIHYTGSTYYNPSLKSRVTISVDTSKNQFSLKLSSVTAADTAVYYCARLNPSIAARPGAFDIWGQGTMVTVSS
VL: QSVLTQPPSVSAAPGQKVTISCSGSSSNIANNFVSWFQQLPGTAPKLLIYDNNKRPSGIPDRFSGSKSGTSATLGITGLQTGDEADYYCGTWDRSLSAGVFGGGTKVTVL
notes: Naive library clone; Fab on phage in the phage ELISA
B3: R1 (antibody, V domains shown)
VH: EVQLVQSGAEVKKPGASVKVSCKASGYTFTSYYTHWVRQAPGQGLEWMGIINPSGGSTSYAQKFQGRVTMTRDTSTSTVYMELSSLRSEDTAVYYCARGAPEYSSSSDYWGQGTMVTVSS
VL: QSALTQPASVSGSPGQSITISCTGTSSDVGGYNYVSWYQQHPGKAPKLMIYDVSNRPSGVSNRFSGSKSGNTASLTISGLQAEDEADYYCSSYTSSSTRWVFGGGTKLTVL
notes: as for B2

What was measured:
CRD1 [1] = target: T1, CRD1; experiment: ELISA, coated CD137-Fc protein 2 µg/mL, antibody 10 or 5 µg/mL, absorbance 620 nm; Non (uncoated well) 0.3465
T1 construct: also called fragmented human CD137-Fc fusion protein CRD1
T1 sequence (chain, as listed by the source limits assumed): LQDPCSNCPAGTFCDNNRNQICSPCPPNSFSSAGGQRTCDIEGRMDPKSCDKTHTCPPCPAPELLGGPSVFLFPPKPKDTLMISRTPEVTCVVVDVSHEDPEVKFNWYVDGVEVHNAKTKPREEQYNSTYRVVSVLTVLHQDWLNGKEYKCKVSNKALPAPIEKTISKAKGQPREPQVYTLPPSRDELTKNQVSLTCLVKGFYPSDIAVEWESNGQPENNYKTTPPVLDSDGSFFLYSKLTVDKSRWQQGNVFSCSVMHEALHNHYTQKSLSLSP
Method: (§1) Fragmented human CD137-Fc fusion proteins were diluted to 2 μg/mL in an aqueous sodium carbonate solution adjusted to pH9.6. Fifty μL of a diluted fragmented human CD137-Fc fusion protein was added individually to each well of a Nunc MaxiSorp flat-bottom 96 well plate (Nunc). This was allowed to stand at 4° C. overnight or longer, and then the plate was allowed to stand at room temperature for one hour so that the plate has the same temperature as the room temperature. The solution containing the fragmented human CD137-Fc fusion protein was removed by tilting, and each well was washed three times with 300 μL of Wash buffer (TBS containing 0.1% Tween20, TaKaRa). Next, 150 μL of blocking buffer (TBS containing 2% BSA) was added to each well, and this was allowed to stand for one hour or more. The blocking buffer was removed by tilting, and each well was washed three times with Wash Buffer in a similar manner to an earlier step. Then, 50 μL of an antibody solution prepared in advance by dilution with TBS to 10 μg/mL or 5 μg/mL was added to each well. This was subjected to a speed of 600 rpm or so for one hour at room temperature to bind the antibody to the immobilized antigen. […] 100 μL of a secondary antibody solution produced by 1000-fold dilution with TBS containing 0.1% Tween20 was added to each well. For the secondary antibody, ANTIBODY ALKALINE PHOSPHATASE CONJUGATE HUMAN IMMUNOGLOBULIN ABSORBED Goat Anti-Human Kappa Alkaline Phosphate from BIOSOURCE was used in the case of antibodies carrying a Kappa chain, and Human Lambda Light Chain Antibody; Goat anti-Human Lambda Light Chain Antibody Alkaline Phosphatase Conjugated from BETHYL LABORATORIES INC. was used in the case of antibodies carrying a Lambda chain. […] Color development was performed using the BluePhos Microwell kit from KPL. After the chromogenic reaction was stopped using the AP stop solution from KPL, the absorbance was measured at 620 nm on an absorptiometer.

CRD1-3 [2] = target: T2, CRD1-3; experiment: as above
T2 construct: also called fragmented human CD137-Fc fusion protein CRD1-3
T2 sequence (chain, as listed by the source limits assumed): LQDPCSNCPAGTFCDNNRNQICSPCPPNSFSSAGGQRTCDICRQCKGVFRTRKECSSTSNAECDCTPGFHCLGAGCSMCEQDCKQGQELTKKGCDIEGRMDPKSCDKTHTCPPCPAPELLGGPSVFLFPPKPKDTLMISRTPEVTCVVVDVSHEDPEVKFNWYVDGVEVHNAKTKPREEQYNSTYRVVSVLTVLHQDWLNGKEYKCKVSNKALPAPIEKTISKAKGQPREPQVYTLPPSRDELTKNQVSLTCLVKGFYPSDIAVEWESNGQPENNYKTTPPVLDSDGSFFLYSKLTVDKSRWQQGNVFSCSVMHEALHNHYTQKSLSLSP
Method: as §1

CRD1-2 [3] = target: T3, CRD1-2; experiment: as above
T3 construct: also called fragmented human CD137-Fc fusion protein CRD1-2
T3 sequence (chain, as listed by the source limits assumed): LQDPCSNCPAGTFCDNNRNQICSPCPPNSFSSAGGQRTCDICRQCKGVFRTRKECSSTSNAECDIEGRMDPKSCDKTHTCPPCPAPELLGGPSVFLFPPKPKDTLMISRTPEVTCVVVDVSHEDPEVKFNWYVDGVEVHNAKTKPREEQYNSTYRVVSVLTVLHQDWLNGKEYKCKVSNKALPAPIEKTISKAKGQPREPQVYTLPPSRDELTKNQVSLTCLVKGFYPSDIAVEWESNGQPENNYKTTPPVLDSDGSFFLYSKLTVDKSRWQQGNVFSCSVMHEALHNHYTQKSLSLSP
Method: as §1

CRD2-4 [4] = target: T4, CRD2-4; experiment: as above
T4 construct: also called fragmented human CD137-Fc fusion protein CRD2-4
T4 sequence (chain, as listed by the source limits assumed): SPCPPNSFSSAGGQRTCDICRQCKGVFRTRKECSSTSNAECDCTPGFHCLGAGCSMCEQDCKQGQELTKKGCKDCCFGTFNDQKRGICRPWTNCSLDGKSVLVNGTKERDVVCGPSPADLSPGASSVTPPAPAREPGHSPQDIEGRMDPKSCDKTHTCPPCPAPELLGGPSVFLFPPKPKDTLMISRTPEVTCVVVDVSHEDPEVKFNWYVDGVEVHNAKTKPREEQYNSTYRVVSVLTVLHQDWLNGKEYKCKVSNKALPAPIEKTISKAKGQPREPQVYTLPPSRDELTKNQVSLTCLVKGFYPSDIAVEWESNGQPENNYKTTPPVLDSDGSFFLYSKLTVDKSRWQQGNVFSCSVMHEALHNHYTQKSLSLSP
Method: as §1

CRD2-3 [5] = target: T5, CRD2-3; experiment: as above
T5 construct: also called fragmented human CD137-Fc fusion protein CRD2-3
T5 sequence (chain, as listed by the source limits assumed): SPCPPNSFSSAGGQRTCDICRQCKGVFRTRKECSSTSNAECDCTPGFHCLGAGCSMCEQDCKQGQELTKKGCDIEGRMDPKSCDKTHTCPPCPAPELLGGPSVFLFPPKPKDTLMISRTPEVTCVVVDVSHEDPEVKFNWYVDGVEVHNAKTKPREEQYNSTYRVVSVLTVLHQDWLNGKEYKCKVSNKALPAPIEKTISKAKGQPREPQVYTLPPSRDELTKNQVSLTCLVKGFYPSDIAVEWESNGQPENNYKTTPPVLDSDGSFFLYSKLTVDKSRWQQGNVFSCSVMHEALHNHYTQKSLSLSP
Method: as §1

CRD3-4 [6] = target: T6, CRD3-4; experiment: as above
T6 construct: also called fragmented human CD137-Fc fusion protein CRD3-4
T6 sequence (chain, as listed by the source limits assumed): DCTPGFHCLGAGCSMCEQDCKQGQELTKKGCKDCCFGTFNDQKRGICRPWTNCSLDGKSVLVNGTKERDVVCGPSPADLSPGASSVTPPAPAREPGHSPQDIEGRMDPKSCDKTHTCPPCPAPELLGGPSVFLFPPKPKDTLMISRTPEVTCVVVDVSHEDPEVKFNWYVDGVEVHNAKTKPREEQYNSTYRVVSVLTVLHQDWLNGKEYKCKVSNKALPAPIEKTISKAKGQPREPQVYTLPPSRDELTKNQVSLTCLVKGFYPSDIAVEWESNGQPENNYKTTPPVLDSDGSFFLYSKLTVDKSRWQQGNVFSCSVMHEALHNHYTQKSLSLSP
Method: as §1

[7] = target: full-length human CD137-Fc fusion protein (human); experiment: as above
Chain of full-length human CD137-Fc fusion protein (human) (chain, as listed by the source limits assumed): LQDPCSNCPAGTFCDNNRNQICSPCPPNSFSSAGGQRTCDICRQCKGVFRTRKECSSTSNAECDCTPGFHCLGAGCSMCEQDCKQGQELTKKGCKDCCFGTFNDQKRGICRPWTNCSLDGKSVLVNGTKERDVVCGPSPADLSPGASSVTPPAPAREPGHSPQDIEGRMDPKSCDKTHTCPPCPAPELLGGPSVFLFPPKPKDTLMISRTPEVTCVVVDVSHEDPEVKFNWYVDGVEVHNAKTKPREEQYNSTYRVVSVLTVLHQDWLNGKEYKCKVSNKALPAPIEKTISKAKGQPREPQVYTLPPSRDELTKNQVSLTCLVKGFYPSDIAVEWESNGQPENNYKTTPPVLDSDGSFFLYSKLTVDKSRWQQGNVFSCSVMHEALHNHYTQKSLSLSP
Method: as §1

CRD1 [8] = target: T1, CRD1; experiment: ELISA, coated CD137-Fc protein 2 µg/mL, antibody 10 or 5 µg/mL; absorbance 620 nm divided by that of the uncoated well
Method: as §1

CRD1-3 [9] = target: T2, CRD1-3; experiment: as above
Method: as §1

CRD1-2 [10] = target: T3, CRD1-2; experiment: as above
Method: as §1

CRD2-4 [11] = target: T4, CRD2-4; experiment: as above
Method: as §1

CRD2-3 [12] = target: T5, CRD2-3; experiment: as above
Method: as §1

CRD3-4 [13] = target: T6, CRD3-4; experiment: as above
Method: as §1

[14] = target: full-length human CD137-Fc fusion protein (human); experiment: as above
Method: as §1

CRD1 [15] = target: T1, CRD1; experiment: ELISA, coated CD137-Fc protein 2 µg/mL, antibody 10 or 5 µg/mL, absorbance 620 nm; Non (uncoated well) 0.202
Method: as §1

CRD1-3 [16] = target: T2, CRD1-3; experiment: as above
Method: as §1

CRD1-2 [17] = target: T3, CRD1-2; experiment: as above
Method: as §1

CRD2-4 [18] = target: T4, CRD2-4; experiment: as above
Method: as §1

CRD2-3 [19] = target: T5, CRD2-3; experiment: as above
Method: as §1

CRD3-4 [20] = target: T6, CRD3-4; experiment: as above
Method: as §1

CRD1 [21] = target: T1, CRD1; experiment: ELISA, coated CD137-Fc protein 2 µg/mL, antibody 10 or 5 µg/mL, absorbance 620 nm; Non (uncoated well) 0.065
Method: as §1

CRD1-2 [22] = target: T3, CRD1-2; experiment: as above
Method: as §1

CRD2-4 [23] = target: T4, CRD2-4; experiment: as above
Method: as §1

CRD2-3 [24] = target: T5, CRD2-3; experiment: as above
Method: as §1

CRD3-4 [25] = target: T6, CRD3-4; experiment: as above
Method: as §1

[26] = target: full-length human CD137-Fc fusion protein (human); experiment: as above
Method: as §1

Binder | Ratio with respect to Non-Coating (CRD1 [8]) | Ratio with respect to Non-Coating (CRD1-3 [9]) | Ratio with respect to Non-Coating (CRD1-2 [10]) | Ratio with respect to Non-Coating (CRD2-4 [11]) | Ratio with respect to Non-Coating (CRD2-3 [12]) | Ratio with respect to Non-Coating (CRD3-4 [13]) | Ratio with respect to Non-Coating [14] | also measured
B1 | 1.2 | 6.6 | 1.2 | 6.6 | 7.2 | 7.7 | 5.8 | ELISA color development level (CRD1 [1]): 0.4; ELISA color development level (CRD1-3 [2]): 2.29; ELISA color development level (CRD1-2 [3]): 0.419; ELISA color development level (CRD2-4 [4]): 2.27; ELISA color development level (CRD2-3 [5]): 2.49; ELISA color development level (CRD3-4 [6]): 2.65; ELISA color development level [7]: 2.03
B2 | 1.1 | 1.1 | 1 | 0.7 | 0.9 | 0.5 | – | ELISA color development level (CRD1 [15]): 0.226; ELISA color development level (CRD1-3 [16]): 0.226; ELISA color development level (CRD1-2 [17]): 0.202; ELISA color development level (CRD2-4 [18]): 0.15; ELISA color development level (CRD2-3 [19]): 0.19; ELISA color development level (CRD3-4 [20]): 0.11
B3 | 1.9 | – | 13.3 | 1.4 | 1.8 | 1.3 | 27.6 | ELISA color development level (CRD1 [21]): 0.123; ELISA color development level (CRD1-2 [22]): 0.865; ELISA color development level (CRD2-4 [23]): 0.0935; ELISA color development level (CRD2-3 [24]): 0.117; ELISA color development level (CRD3-4 [25]): 0.0875; ELISA color development level [26]: 1.79
